This note sets out measurements from publication PMC8401544, “Cytotoxicity of Frutalin on Distinct Cancer Cells Is Independent of Its Glycosylation” (Molecules, 2021).

The data set concerns the molecule itself. Put plainly: dynamic light scattering; protein at 0.8-1.0 mg/mL in phosphate buffer, room temperature, filtered through 0.45 um; size distribution by intensity; measured diameter compared with that expected from the theoretical MW of a tetramer.

B1: Frutalin produced in E. coli cleaved from TrxFTL (cFTL) (natural protein, Artocarpus incisa)
chain: GAMGNQQSGKSQTVIVGPWGAKVSTSSNGKAFDDGAFTGIREINLSYNKETAIGDFQVVYDLNGSPYVGQNHKSFITGFTPVKISLDFPSEYIMEVSGYTGNVSGYVVVRSLTFKTNKKTYGPYGVTSGTPFNLPIENGLIVGFKGSIGYWLDYFSMYLSL
notes: residues left after TEV cleavage (GA) and MG from the cloning restriction site; not glycosylated; 17421.61 Da by calculation; also called cleaved FTL; FTL cleaved from TrxFTL; source: E. coli BL21(DE3) (NZYBL21), purified (IMAC, TEV digestion, reverse IMAC on Ni-NTA); not shown: TrxA, N-terminal, cleaved; His6, N-terminal, cleaved
What is called stoichiometry N is the number of molecules, sites or subunits per partner or assembly. As for B1, the “stoichiometry N” value turned out to be 4.

B2: Frutalin produced in E. coli in fusion with TrxA (TrxFTL) (natural protein, Artocarpus incisa)
chain: SSGENLYFQGAMGNQQSGKSQTVIVGPWGAKVSTSSNGKAFDDGAFTGIREINLSYNKETAIGDFQVVYDLNGSPYVGQNHKSFITGFTPVKISLDFPSEYIMEVSGYTGNVSGYVVVRSLTFKTNKKTYGPYGVTSGTPFNLPIENGLIVGFKGSIGYWLDYFSMYLSL
notes: 13 extra amino acids between the 6xHistag and frutalin; not glycosylated; Vector pETM20; also called FTL in fusion with TrxA; source: E. coli BL21(DE3) (NZYBL21), purified (IMAC, Nickel HisTrap); not shown: TrxA, N-terminal, kept; His6, internal (between TrxA and the TEV recognition site), kept
With B2, the “stoichiometry N” value was found to be 4.
